Measured values as given in patent US20230183713A1, “SITE-SPECIFIC RECOMBINASES FOR EFFICIENT AND SPECIFIC GENOME EDITING” (TECHNISCHE UNIVERSITÄt DRESDEN, published 2023).

T1: Cre recombinase monomer with Q311R mutation
T1 chain: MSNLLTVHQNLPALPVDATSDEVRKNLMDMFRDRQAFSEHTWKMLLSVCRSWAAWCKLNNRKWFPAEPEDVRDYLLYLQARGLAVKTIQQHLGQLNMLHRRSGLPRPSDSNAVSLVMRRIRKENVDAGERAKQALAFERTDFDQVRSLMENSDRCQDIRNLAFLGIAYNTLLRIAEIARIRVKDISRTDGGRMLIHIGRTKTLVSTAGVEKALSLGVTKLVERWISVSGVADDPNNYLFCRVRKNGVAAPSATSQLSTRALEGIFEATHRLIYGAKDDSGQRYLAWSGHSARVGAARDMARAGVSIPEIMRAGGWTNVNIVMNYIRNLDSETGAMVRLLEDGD


Target: T1, Cre recombinase monomer with Q311R …

Protein	Median dimer activity (recombination on loxP) [%]
Cre recombinase monomer with K201G mutation (protein) MSNLLTVHQNLPALPVDATSDEVRKNLMDMFRDRQAFSEHTWKMLLSVCRSWAAWCKLNNRKWFPAEPEDVRDYLLYLQARGLAVKTIQQHLGQLNMLHRRSGLPRPSDSNAVSLVMRRIRKENVDAGERAKQALAFERTDFDQVRSLMENSDRCQDIRNLAFLGIAYNTLLRIAEIARIRVKDISRTDGGRMLIHIGRTGTLVSTAGVEKALSLGVTKLVERWISVSGVADDPNNYLFCRVRKNGVAAPSATSQLSTRALEGIFEATHRLIYGAKDDSGQRYLAWSGHSARVGAARDMARAGVSIPEIMQAGGWTNVNIVMNYIRNLDSETGAMVRLLEDGD	90
Cre recombinase monomer with K201H mutation (protein) MSNLLTVHQNLPALPVDATSDEVRKNLMDMFRDRQAFSEHTWKMLLSVCRSWAAWCKLNNRKWFPAEPEDVRDYLLYLQARGLAVKTIQQHLGQLNMLHRRSGLPRPSDSNAVSLVMRRIRKENVDAGERAKQALAFERTDFDQVRSLMENSDRCQDIRNLAFLGIAYNTLLRIAEIARIRVKDISRTDGGRMLIHIGRTHTLVSTAGVEKALSLGVTKLVERWISVSGVADDPNNYLFCRVRKNGVAAPSATSQLSTRALEGIFEATHRLIYGAKDDSGQRYLAWSGHSARVGAARDMARAGVSIPEIMQAGGWTNVNIVMNYIRNLDSETGAMVRLLEDGD	94
Cre recombinase monomer with K201R mutation (protein) MSNLLTVHQNLPALPVDATSDEVRKNLMDMFRDRQAFSEHTWKMLLSVCRSWAAWCKLNNRKWFPAEPEDVRDYLLYLQARGLAVKTIQQHLGQLNMLHRRSGLPRPSDSNAVSLVMRRIRKENVDAGERAKQALAFERTDFDQVRSLMENSDRCQDIRNLAFLGIAYNTLLRIAEIARIRVKDISRTDGGRMLIHIGRTRTLVSTAGVEKALSLGVTKLVERWISVSGVADDPNNYLFCRVRKNGVAAPSATSQLSTRALEGIFEATHRLIYGAKDDSGQRYLAWSGHSARVGAARDMARAGVSIPEIMQAGGWTNVNIVMNYIRNLDSETGAMVRLLEDGD	98
Cre recombinase monomer with K201I mutation (protein) MSNLLTVHQNLPALPVDATSDEVRKNLMDMFRDRQAFSEHTWKMLLSVCRSWAAWCKLNNRKWFPAEPEDVRDYLLYLQARGLAVKTIQQHLGQLNMLHRRSGLPRPSDSNAVSLVMRRIRKENVDAGERAKQALAFERTDFDQVRSLMENSDRCQDIRNLAFLGIAYNTLLRIAEIARIRVKDISRTDGGRMLIHIGRTITLVSTAGVEKALSLGVTKLVERWISVSGVADDPNNYLFCRVRKNGVAAPSATSQLSTRALEGIFEATHRLIYGAKDDSGQRYLAWSGHSARVGAARDMARAGVSIPEIMQAGGWTNVNIVMNYIRNLDSETGAMVRLLEDGD	86
Cre recombinase monomer with R292G mutation (protein) MSNLLTVHQNLPALPVDATSDEVRKNLMDMFRDRQAFSEHTWKMLLSVCRSWAAWCKLNNRKWFPAEPEDVRDYLLYLQARGLAVKTIQQHLGQLNMLHRRSGLPRPSDSNAVSLVMRRIRKENVDAGERAKQALAFERTDFDQVRSLMENSDRCQDIRNLAFLGIAYNTLLRIAEIARIRVKDISRTDGGRMLIHIGRTKTLVSTAGVEKALSLGVTKLVERWISVSGVADDPNNYLFCRVRKNGVAAPSATSQLSTRALEGIFEATHRLIYGAKDDSGQRYLAWSGHSAGVGAARDMARAGVSIPEIMQAGGWTNVNIVMNYIRNLDSETGAMVRLLEDGD	97
Cre recombinase monomer with H289I mutation (protein) MSNLLTVHQNLPALPVDATSDEVRKNLMDMFRDRQAFSEHTWKMLLSVCRSWAAWCKLNNRKWFPAEPEDVRDYLLYLQARGLAVKTIQQHLGQLNMLHRRSGLPRPSDSNAVSLVMRRIRKENVDAGERAKQALAFERTDFDQVRSLMENSDRCQDIRNLAFLGIAYNTLLRIAEIARIRVKDISRTDGGRMLIHIGRTKTLVSTAGVEKALSLGVTKLVERWISVSGVADDPNNYLFCRVRKNGVAAPSATSQLSTRALEGIFEATHRLIYGAKDDSGQRYLAWSGISARVGAARDMARAGVSIPEIMQAGGWTNVNIVMNYIRNLDSETGAMVRLLEDGD	75
Cre recombinase monomer with R292H mutation (protein) MSNLLTVHQNLPALPVDATSDEVRKNLMDMFRDRQAFSEHTWKMLLSVCRSWAAWCKLNNRKWFPAEPEDVRDYLLYLQARGLAVKTIQQHLGQLNMLHRRSGLPRPSDSNAVSLVMRRIRKENVDAGERAKQALAFERTDFDQVRSLMENSDRCQDIRNLAFLGIAYNTLLRIAEIARIRVKDISRTDGGRMLIHIGRTKTLVSTAGVEKALSLGVTKLVERWISVSGVADDPNNYLFCRVRKNGVAAPSATSQLSTRALEGIFEATHRLIYGAKDDSGQRYLAWSGHSAHVGAARDMARAGVSIPEIMQAGGWTNVNIVMNYIRNLDSETGAMVRLLEDGD	88
Cre recombinase monomer with H289D mutation (protein) MSNLLTVHQNLPALPVDATSDEVRKNLMDMFRDRQAFSEHTWKMLLSVCRSWAAWCKLNNRKWFPAEPEDVRDYLLYLQARGLAVKTIQQHLGQLNMLHRRSGLPRPSDSNAVSLVMRRIRKENVDAGERAKQALAFERTDFDQVRSLMENSDRCQDIRNLAFLGIAYNTLLRIAEIARIRVKDISRTDGGRMLIHIGRTKTLVSTAGVEKALSLGVTKLVERWISVSGVADDPNNYLFCRVRKNGVAAPSATSQLSTRALEGIFEATHRLIYGAKDDSGQRYLAWSGDSARVGAARDMARAGVSIPEIMQAGGWTNVNIVMNYIRNLDSETGAMVRLLEDGD	97
Cre recombinase monomer with R292F mutation (protein) MSNLLTVHQNLPALPVDATSDEVRKNLMDMFRDRQAFSEHTWKMLLSVCRSWAAWCKLNNRKWFPAEPEDVRDYLLYLQARGLAVKTIQQHLGQLNMLHRRSGLPRPSDSNAVSLVMRRIRKENVDAGERAKQALAFERTDFDQVRSLMENSDRCQDIRNLAFLGIAYNTLLRIAEIARIRVKDISRTDGGRMLIHIGRTKTLVSTAGVEKALSLGVTKLVERWISVSGVADDPNNYLFCRVRKNGVAAPSATSQLSTRALEGIFEATHRLIYGAKDDSGQRYLAWSGHSAFVGAARDMARAGVSIPEIMQAGGWTNVNIVMNYIRNLDSETGAMVRLLEDGD	42
Cre recombinase monomer with H289R mutation (protein) MSNLLTVHQNLPALPVDATSDEVRKNLMDMFRDRQAFSEHTWKMLLSVCRSWAAWCKLNNRKWFPAEPEDVRDYLLYLQARGLAVKTIQQHLGQLNMLHRRSGLPRPSDSNAVSLVMRRIRKENVDAGERAKQALAFERTDFDQVRSLMENSDRCQDIRNLAFLGIAYNTLLRIAEIARIRVKDISRTDGGRMLIHIGRTKTLVSTAGVEKALSLGVTKLVERWISVSGVADDPNNYLFCRVRKNGVAAPSATSQLSTRALEGIFEATHRLIYGAKDDSGQRYLAWSGRSARVGAARDMARAGVSIPEIMQAGGWTNVNIVMNYIRNLDSETGAMVRLLEDGD	79
Cre recombinase monomer with R292C mutation (protein) MSNLLTVHQNLPALPVDATSDEVRKNLMDMFRDRQAFSEHTWKMLLSVCRSWAAWCKLNNRKWFPAEPEDVRDYLLYLQARGLAVKTIQQHLGQLNMLHRRSGLPRPSDSNAVSLVMRRIRKENVDAGERAKQALAFERTDFDQVRSLMENSDRCQDIRNLAFLGIAYNTLLRIAEIARIRVKDISRTDGGRMLIHIGRTKTLVSTAGVEKALSLGVTKLVERWISVSGVADDPNNYLFCRVRKNGVAAPSATSQLSTRALEGIFEATHRLIYGAKDDSGQRYLAWSGHSACVGAARDMARAGVSIPEIMQAGGWTNVNIVMNYIRNLDSETGAMVRLLEDGD	93
Cre recombinase monomer with R292A mutation (protein) MSNLLTVHQNLPALPVDATSDEVRKNLMDMFRDRQAFSEHTWKMLLSVCRSWAAWCKLNNRKWFPAEPEDVRDYLLYLQARGLAVKTIQQHLGQLNMLHRRSGLPRPSDSNAVSLVMRRIRKENVDAGERAKQALAFERTDFDQVRSLMENSDRCQDIRNLAFLGIAYNTLLRIAEIARIRVKDISRTDGGRMLIHIGRTKTLVSTAGVEKALSLGVTKLVERWISVSGVADDPNNYLFCRVRKNGVAAPSATSQLSTRALEGIFEATHRLIYGAKDDSGQRYLAWSGHSAAVGAARDMARAGVSIPEIMQAGGWTNVNIVMNYIRNLDSETGAMVRLLEDGD	96
Cre recombinase monomer with R292I mutation (protein) MSNLLTVHQNLPALPVDATSDEVRKNLMDMFRDRQAFSEHTWKMLLSVCRSWAAWCKLNNRKWFPAEPEDVRDYLLYLQARGLAVKTIQQHLGQLNMLHRRSGLPRPSDSNAVSLVMRRIRKENVDAGERAKQALAFERTDFDQVRSLMENSDRCQDIRNLAFLGIAYNTLLRIAEIARIRVKDISRTDGGRMLIHIGRTKTLVSTAGVEKALSLGVTKLVERWISVSGVADDPNNYLFCRVRKNGVAAPSATSQLSTRALEGIFEATHRLIYGAKDDSGQRYLAWSGHSAIVGAARDMARAGVSIPEIMQAGGWTNVNIVMNYIRNLDSETGAMVRLLEDGD	97
Cre recombinase monomer with K201S mutation (protein) MSNLLTVHQNLPALPVDATSDEVRKNLMDMFRDRQAFSEHTWKMLLSVCRSWAAWCKLNNRKWFPAEPEDVRDYLLYLQARGLAVKTIQQHLGQLNMLHRRSGLPRPSDSNAVSLVMRRIRKENVDAGERAKQALAFERTDFDQVRSLMENSDRCQDIRNLAFLGIAYNTLLRIAEIARIRVKDISRTDGGRMLIHIGRTSTLVSTAGVEKALSLGVTKLVERWISVSGVADDPNNYLFCRVRKNGVAAPSATSQLSTRALEGIFEATHRLIYGAKDDSGQRYLAWSGHSARVGAARDMARAGVSIPEIMQAGGWTNVNIVMNYIRNLDSETGAMVRLLEDGD	95
Cre recombinase monomer with K201T mutation (protein) MSNLLTVHQNLPALPVDATSDEVRKNLMDMFRDRQAFSEHTWKMLLSVCRSWAAWCKLNNRKWFPAEPEDVRDYLLYLQARGLAVKTIQQHLGQLNMLHRRSGLPRPSDSNAVSLVMRRIRKENVDAGERAKQALAFERTDFDQVRSLMENSDRCQDIRNLAFLGIAYNTLLRIAEIARIRVKDISRTDGGRMLIHIGRTTTLVSTAGVEKALSLGVTKLVERWISVSGVADDPNNYLFCRVRKNGVAAPSATSQLSTRALEGIFEATHRLIYGAKDDSGQRYLAWSGHSARVGAARDMARAGVSIPEIMQAGGWTNVNIVMNYIRNLDSETGAMVRLLEDGD	94
